This is an account of results in patent publication US20060094101A1 (Pfizer, published 2006).

B1: human polyhomeotic 2 (HPH2), yeast two-hybrid library clone (other, not shown: large carriers)
chain: MCLRGGCSPRAPAAAPQPRPPPALPPRPRAPVPASRPGRPLLTPARPCGRMRRGSPGPRLGGSRGERRRPAGRDPARVGPGQGLRRPARPGPAAWTETGQGIVHALTDLSIPGMTSGNGNSASSIAGTAPQNGENKPPQAIVKPQILTHVIEGFVIQEGADVSRWDARLLVGNLKKKYAQGFLPEKLPQQDHTTTTDSEMEEPYLQESKEEGAPLKLKCELCGRVDFAYKFKRSKRFCSMACAKRYNVGCTKRVGLFHSDRSKLQKAGAATHNRRRPAKPVCHHLPRIPRSSQQALCPFRLLLLCVTHSQEDSSRCSDNSSYEEPLSPISASSSTSAGDKASGTWSSPTCICGTWWAWDTTSCQVSHQVNVEDVYEFIRSLPGCQEIAEEFRAQEIDGQALLLLKEDHLMSVMNIKLGPALKIYARISMLKDS
notes: Clone from a pretransformed human bone marrow cDNA library; also called human polyhomeotic homolog 2
B2: V5-tagged Shc (V5-p66 Shc A) (other, not shown: small tags and cut ends)
chain: MDLLPPKPKYNPLRNESLSSLEEGASGSTPPEELPSPSASSLGPILPPLPGDDSPLPCVPSFPRMSNLKLANPAGGPWGLKGSQERLLKMGKGVQGQPFGLRPLAPPPDMNKLSGGGGRRTRVEGGQLGGEEWTRHGSFVNKPTRGWLHPNDKVMGPGVSYLVRYMGCVEVLQSMRALDFNTRTQVTREAISLVCEAVPGAKGATRRRKPCSRPLSSILGRSNLKFAGMPITLTVSTSSLNLMAADCKQIIANHHMQSISFASGGDPDTAEYVAYVAKDPVNQRACHILECPEGLAQDVISTIGQAFELRFKQYLRNPPKLVTPHDRMAGFDGSAWDEEEEEPPDHQYYNDFPGKEPPLGGVVDMRLREGAARPTLPSAQMSSHLGATLPIGQHAAGDHEVRKQMLPPPPCPGRELFDDPSYVNIQNLDKARQAGGGAGPPNPSLNGSAPRDLFDMKPFEDALRVPPPPQSMSMAEQLQGEPWFHGKLSRREAEALLQLNGDFLVRESTTTPGQYVLTGLQSGQPKHLLLVDPEGVVRTKDHRFESVSHLISYHMDNHLPIISAGSELCLQQPVDRKV
B3: src homology and collagen (Shc; Shc A), yeast two-hybrid library clone (other, not shown: large carriers)
chain: B2 chain
notes: Clone from a pretransformed human bone marrow cDNA library
B4: Lamin (Clontech), yeast two-hybrid control bait (other, UniProt P04386 1-147, looked up)
chain: MKLLSSIEQACDICRLKKLKCSKEKPKCAKCLKNNWECRYSPKTKRSPLTRAHLTEVESRLERLEQLFLLIFPREDLDMILKMDSLQDIKALLTGLFVQDNVNKDAVTDRLASVETDMPLTLRQHRISATSSSEESSNKGQRQLTVSSEEVVSREVSGIKAAYEAELGDARKTLDSVAKERARLQLELSKVREEFKELKARNTKKEGDLIAAQARLKDLEALLNSKEAALSTALSEKRTLEGELHDLRGQVAKLEAALGEAKKQLQDEMLRRVDAENRLQTMKEELDFQKNIYSEELRETKRRHETRLVEID
notes: Specificity control bait; also called lamin (L)
B5: p53, yeast two-hybrid control bait (other, UniProt P04386 1-147, looked up)
chain: MKLLSSIEQACDICRLKKLKCSKEKPKCAKCLKNNWECRYSPKTKRSPLTRAHLTEVESRLERLEQLFLLIFPREDLDMILKMDSLQDIKALLTGLFVQDNVNKDAVTDRLASVETDMPLTLRQHRISATSSSEESSNKGQRQLTVSPVTETPGPVAPAPATPWPLSSFVPSQKTYQGNYGFHLGFLQSGTAKSVMCTYSPPLNKLFCQLAKTCPVQLWVSATPPAGSRVRAMAIYKKSQHMTEVVRRCPHHERCSDGDGLAPPQHLIRVEGNLYPEYLEDRQTFRHSVVVPYEPPEAGSEYTTIHYKYMCNSSCMGGMNRRPILTIITLEDSSGNLLGRDSFEVRVCACPGRDRRTEEENFRKKEVLCPELPPGSAKRALPTCTSASPPQKKKPLDGEYFTLKIRGRKRFEMFRELNEALELKDAHATEESGDSRAHSSYLKTKKGQSTSRHKKTMVKKVGPDSD
notes: Specificity control bait

Assay [1] concerns the target B4. The assay is described as follows: yeast two-hybrid, growth and color on selective media. An excerpt: (§1) Independent sequences were transformed into bacteria (DH5 α) from which DNA was subsequently isolated. Next, the DNA was transformed into yeast strain AH109. […] Each independent sequence strain transformed in AH109 was mated with Y187 yeast transformed with each of the three baits. Independent clones which interacted with MK2 and MK2 K93R, but not with empty vector pGBKT7, TPL2, p53, or Lamin, as assayed by their growth on SD/-Ade/-His/-Leu/-Trp and blue color on SD/-Leu/-Trp X-α-GAL, were identified as clones which included DNA inserts encoding specific MK2 interacting proteins (FIG. 9A). […] One protein encoded by an independent DNA sequence characterized was “similar to smoothelin” (STS).

The target in assay [2] is B5. The assay is described as follows: yeast two-hybrid, growth on SD/-Ade/-His/-Leu/-Trp and blue color on SD/-Leu/-Trp X-α-GAL.
From the text: as §1

Assay [3] has as its target T1, TPL2, yeast two-hybrid control bait (yeast, UniProt P04386 1-147; P41279 1-467, limits assumed).
T1 construct: Specificity control bait
The description is as above.
From the text: as §1

A further assay deals with MYC-tagged MK2 (UniProt P49137 1-400, limits assumed). Briefly: cell-based or functional assay.
Chain of MYC-tagged MK2 (P49137 whole entry): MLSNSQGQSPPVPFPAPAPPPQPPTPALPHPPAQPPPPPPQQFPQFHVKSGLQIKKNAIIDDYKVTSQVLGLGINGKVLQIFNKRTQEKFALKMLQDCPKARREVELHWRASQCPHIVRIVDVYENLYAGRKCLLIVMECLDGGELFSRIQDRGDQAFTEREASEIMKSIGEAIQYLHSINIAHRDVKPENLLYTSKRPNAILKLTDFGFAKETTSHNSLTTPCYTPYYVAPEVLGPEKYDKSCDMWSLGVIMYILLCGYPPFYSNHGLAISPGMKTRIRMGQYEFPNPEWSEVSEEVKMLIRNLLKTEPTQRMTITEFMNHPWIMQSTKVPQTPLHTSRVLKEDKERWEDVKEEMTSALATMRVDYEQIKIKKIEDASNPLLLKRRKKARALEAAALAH
The target in assay [4] is T2, similar to smoothelin (STS), yeast two-hybrid library clone (yeast; human, UniProt P53814 2-868).
T2 construct: Clone from a pretransformed human bone marrow cDNA library
T2 sequence (P53814 other isoform, or with tags, fused parts or gaps limits assumed): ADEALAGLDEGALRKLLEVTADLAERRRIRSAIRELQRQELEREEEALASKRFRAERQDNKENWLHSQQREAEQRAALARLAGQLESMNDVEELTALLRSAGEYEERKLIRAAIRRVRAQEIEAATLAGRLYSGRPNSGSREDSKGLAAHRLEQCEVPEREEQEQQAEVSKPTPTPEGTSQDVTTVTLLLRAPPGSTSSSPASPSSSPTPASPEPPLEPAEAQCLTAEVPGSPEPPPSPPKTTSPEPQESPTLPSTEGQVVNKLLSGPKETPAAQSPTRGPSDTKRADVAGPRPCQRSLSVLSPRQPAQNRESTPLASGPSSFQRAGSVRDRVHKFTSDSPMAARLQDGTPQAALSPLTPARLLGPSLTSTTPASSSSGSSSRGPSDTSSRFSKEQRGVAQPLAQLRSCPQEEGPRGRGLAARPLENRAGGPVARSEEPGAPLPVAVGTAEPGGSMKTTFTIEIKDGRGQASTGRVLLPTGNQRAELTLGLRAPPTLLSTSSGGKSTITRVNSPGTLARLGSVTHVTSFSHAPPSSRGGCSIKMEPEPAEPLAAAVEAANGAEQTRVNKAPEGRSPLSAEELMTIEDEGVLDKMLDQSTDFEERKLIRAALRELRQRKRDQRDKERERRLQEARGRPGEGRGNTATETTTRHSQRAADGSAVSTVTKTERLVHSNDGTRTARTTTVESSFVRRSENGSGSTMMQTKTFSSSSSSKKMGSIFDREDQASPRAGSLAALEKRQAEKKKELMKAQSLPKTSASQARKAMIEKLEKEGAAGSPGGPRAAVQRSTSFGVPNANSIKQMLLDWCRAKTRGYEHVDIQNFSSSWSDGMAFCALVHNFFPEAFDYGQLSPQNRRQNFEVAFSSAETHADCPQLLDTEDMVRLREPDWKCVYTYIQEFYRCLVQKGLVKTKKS
The assay is described as follows: yeast two-hybrid, growth and color on selective media.
From the text: as §1

Assay [5] addresses T2, similar to smoothelin (STS), yeast …. The assay is described as follows: yeast two-hybrid, growth on SD/-Ade/-His/-Leu/-Trp and blue color on SD/-Leu/-Trp X-α-GAL.
From the text: as §1

In the case of B1, the binding result in assay [1], in assay [2] and in assay [3] was “no binding” throughout.

Turning to B2, in the assay with MYC-tagged MK2, the “TNF-α biosynthesis (secreted TNF-α by ELISA) in LPS-stimulated RAW264.7 cells” value worked out at 1.5 fold and the “basal pHsp 27 levels in HeLa cells (immunoblot, densitometry)” value came out at 3 fold.

Regarding B3, the binding result in assay [1], in assay [2] and in assay [3] was “no binding” throughout.

Regarding B4, in assay [4], the binding result is on record as “no binding”.

As to B5, the binding result in assay [5] was “no binding”.
